Test results: US20250368707A1 (UNIVERSITY OF MIAMI, published 2025)

Target: the molecule itself
Assay: SEC-MALS under native conditions in PBS; self-association (non-covalent dimer)

B1: mouse IL-2-10/CD25 (mIL2-linker-CD25-linker-IL10) (other)
chain: APTSSPTSSPTSSSTAEAQQQQQQQQHLEQLLMDLQELLSRMENYRNLKLPRMLTFKFYLPKQATELKDLQCLEDELGPLRHVLDLTQSKSFQLEDAENFISNIRVTVVKLKGSDNTFECQFDDESATVVDFLRRWIAFCQSIISTSPQGGGSGGGSGGGSELCLYDPPEVPNATFKALSYKNGTILNCECKRGFRRLKELVYMRCLGNSWSSNCQCTSNSHDKSRKQVTAQLEHQKEQQTTTDMQKPTQSMHQENLTGHCREPPPWKHEDSKRIYHFVEGQSVHYECIPGYKALQRGPAISICKMKCGKTGWTQPQLTCVDEREHHRFLASEESQGSRNSSPESETSCPITTTDFPQPTETTAMTETFVLTMEYKGGGSGGGSGGGSSRGQYSREDNNCTHFPVGQSHMLLELRTAFSQVKTFFQTKDQLDNILLTDSLMQDFKGYLGCQALSEMIQFYLVEVMPQAEKHGPEIKEHLNSLGEKLKTLRMRLRRCHRFLPCENKSKAVEQVKSDFNKLQDQGVYKAMNEFDIFINCIEAYMMIKMKSGGHHHHHH
notes: Under native conditions it is predominately a non-covalent dimer; also called mIL-2-10/CD25; mIL2-10/CD25
B1: binds.
